Earlier results, collected in publication PMC7854602.

Experiments:
Cdc42 (inactive) = Cdc42 (inactive) (UniProt P60953)
Cdc42 (activated) = Cdc42 (activated) (UniProt P60953)
RhoA (inactive) = RhoA (inactive) (UniProt P61586)
RhoA (activated) = RhoA (activated) (UniProt P61586)

| Kd (Cdc42 (inactive)) [µM] | Kd (Cdc42 (activated)) [µM] | Kd (RhoA (inactive)) [µM] | Kd (RhoA (activated)) [µM] | Substance |
| --- | --- | --- | --- | --- |
| 149 | 1.8 | – | – | Pak3 CBD 60-113 (from UniProt O75914) |
| – | – | 47 | 3.9 | Rhotekin RBD 8-81 (from UniProt Q8C6B2) |
